T1: nrgEGF (amino acids Thr176-Lys246 of neuregulin-beta 1) (Homo sapiens, UniProt Q02297)
T1 construct: Thr176-Lys246 of neuregulin-beta 1; purchased R&D Sciences or SinoBiologicals
T1 sequence (Q02297 176-246 isoform Q02297-6): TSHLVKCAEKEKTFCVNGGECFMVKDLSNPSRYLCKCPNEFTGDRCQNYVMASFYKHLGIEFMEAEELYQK

T2: nrgECD (amino acids Ser2-Lys246 of neuregulin beta 1) (Homo sapiens, UniProt Q02297)
T2 construct: Ser2-Lys246 of neuregulin beta 1; purchased R&D Sciences or SinoBiologicals
T2 sequence (Q02297 2-246 isoform Q02297-6): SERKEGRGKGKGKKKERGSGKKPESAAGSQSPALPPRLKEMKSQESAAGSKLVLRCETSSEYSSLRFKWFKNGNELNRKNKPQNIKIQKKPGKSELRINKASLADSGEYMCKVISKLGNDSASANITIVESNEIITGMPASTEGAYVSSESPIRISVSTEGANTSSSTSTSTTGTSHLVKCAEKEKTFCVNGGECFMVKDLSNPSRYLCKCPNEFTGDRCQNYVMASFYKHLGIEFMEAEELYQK

T3: VEGF (Homo sapiens, UniProt P15692)
T3 construct: purchased R&D Systems
T3 sequence (P15692 27-191 isoform P15692-4): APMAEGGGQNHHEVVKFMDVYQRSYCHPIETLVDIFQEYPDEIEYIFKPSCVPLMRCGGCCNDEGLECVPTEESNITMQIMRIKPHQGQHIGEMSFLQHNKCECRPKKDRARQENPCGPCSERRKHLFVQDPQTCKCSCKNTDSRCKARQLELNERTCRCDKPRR

B1: IGFBP3-erbB4-Fc: ErbB4-GS-IGFBP3-gly 3 linker-Fc, SEQ ID NO: 22 (protein)
chain: MSEVPVARVWLVLLLLTVQVGVTAGVQPSDSQSVCAGTENKLSSLSDLEQQYRALRKYYENCEVVMGNLEITSIEHNRDLSFLRSVREVTGYVLVALNQFRYLPLENLRIIRGTKLYEDRYALAIFLNYRKDGNFGLQELGLKNLTEILNGGVYVDQNKFLCYADTIHWQDIVRNPWPSNLTLVSTNGSSGCGRCHKSCTGRCWGPTENHCQTLTRTVGGGGSGGGGSGGGGSGGGGSGGGGGASSAGLGPVVRCEPCDARALAQCAPPPAVCAELVREPGCGCCLTCALSEGQPCGIYTERCGSGLRCQPSPDEARPLQALLDGRGLCVNASAVSKGHAKDSQRYKVDYESQSTDTQNFSSESKRETEYGPCRREMEDTLNHLKFLNVLSPRGVHIPNCDKKGFYKKKQCRPSKGRKRGFCWCVDKYGQPLPGYTTKGKEDVHCYSMQSKVECPPCPAPPVAGPSVFLFPPKPKDQLMISRTPEVTCVVVDVSHEDPEVKFNWYVDGVEVHNAKTKPREEQYNSTYRVVSVLTVLHQDWLNGKEYKCKVSNKGLPSSIEKTISKAKGQPREPQVYTLPPSREEMTKNQVSLTCLVKGFYPSDIAVEWESNGQPENNYKTTPPVLDSDGSFFLYSKLTVDKSRWQQGNVFSCSVMHEGLHNHYTQKSLSLSPGK
B2: Chimera B: IGFBP3 with IGFBP3 linker deletion 1-GS 16 linker-v1v2-Fc, SEQ ID NO: 19 (protein)
chain: MSEVPVARVWLVLLLLTVQVGVTAGGASSAGLGPVVRCEPCDARALAQCAPPPAVCAELVREPGCGCCLTCALSEGQPCGIYTERCGSGLRCQPSPDEARPLQALLDGRGLCVNASAVSKGHAKDSQRYKVDYESQSTDTQNFSSESKRETEYGPCRREMEDTLNHLKFLNVLSPRGVHIPNCDKKGFYKKKQCRPSKGRKRGFCWCVDKYGQPLPGYTTKGKEDVHCYSMQSKGGGGSGGGGSGGGGSGIYIFISDTGRPFVEMYSEIPEIIHMTEGRELVIPCRVTSPNITVTLKKFPLDTLIPDGKRIIWDSRKGFIISNATYKEIGLLTCEATVNGHLYKTNYLTHRQGYRIYDVVLSPSHGIELSVGEKLVLNCTARTELNVGIDFNWEYPSSKHQHKKLVNRDLKTQSGSEMKKFLSTLTIDGVTRSDQGLYTCAASSGLMTKKNSTFVRVHEKVECPPCPAPPVAGPSVFLFPPKPKDQLMISRTPEVTCVVVDVSHEDPEVKFNWYVDGVEVHNAKTKPREEQYNSTYRVVSVLTVLHQDWLNGKEYKCKVSNKGLPSSIEKTISKAKGQPREPQVYTLPPSREEMTKNQVSLTCLVKGFYPSDIAVEWESNGQPENNYKTTPPVLDSDGSFFLYSKLTVDKSRWQQGNVFSCSVMHEGLHNHYTQKSLSLSPGK
B3: chimera A: IGFBP3 with IGFBP3 linker deletion 1-gly 3 linker-v1v2-Fc, SEQ ID NO: 14 (protein)
chain: MSEVPVARVWLVLLLLTVQVGVTAGGASSAGLGPVVRCEPCDARALAQCAPPPAVCAELVREPGCGCCLTCALSEGQPCGIYTERCGSGLRCQPSPDEARPLQALLDGRGLCVNASAVSKGHAKDSQRYKVDYESQSTDTQNFSSESKRETEYGPCRREMEDTLNHLKFLNVLSPRGVHIPNCDKKGFYKKKQCRPSKGRKRGFCWCVDKYGQPLPGYTTKGKEDVHCYSMQSKAPPAPGNASESEEDRSAGIYIFISDTGRPFVEMYSEIPEIIHMTEGRELVIPCRVTSPNITVTLKKFPLDTLIPDGKRIIWDSRKGFIISNATYKEIGLLTCEATVNGHLYKTNYLTHRQGYRIYDVVLSPSHGIELSVGEKLVLNCTARTELNVGIDFNWEYPSSKHQHKKLVNRDLKTQSGSEMKKFLSTLTIDGVTRSDQGLYTCAASSGLMTKKNSTFVRVHEKVECPPCPAPPVAGPSVFLFPPKPKDQLMISRTPEVTCVVVDVSHEDPEVKFNWYVDGVEVHNAKTKPREEQYNSTYRVVSVLTVLHQDWLNGKEYKCKVSNKGLPSSIEKTISKAKGQPREPQVYTLPPSREEMTKNQVSLTCLVKGFYPSDIAVEWESNGQPENNYKTTPPVLDSDGSFFLYSKLTVDKSRWQQGNVFSCSVMHEGLHNHYTQKSLSLSPGK

Legend:
[1] = biological target: T1, nrgEGF (amino acids Thr176-Lys246 of neuregulin-beta 1); assay: Biacore binding to nrgEGF
Description: (§1) Biacore binding was performed at David Myszka's laboratory at the University of Utah or at the Genomic Research Center at Academia Sinica. Surfaces of binding protein chimera were made via chemical immobilization on a CM4 chip using standard amine coupling chemistry. […] Excess surface carboxyl activated sites on all four flow cells was blocked using the doubly positively charged species ethylenediamine. Binding experiments (but not immobilizations) in HBS-P (10 mM HEPES pH 7.4, 150 mM NaCl, 0.05% P20), The HBS-P was supplemented with BSA at 0.2 mg/mL, or HBS-P was supplemented with 500 mM NaCl (650 mM NaCl, final concentration). Analytes were also reconstituted in the corresponding buffer. All experiments were performed at 25° C. 1/150 dilutions of phosphoric acid were used to regenerate IGFBP3-Fc surfaces and a sequence of 3 M MgCl2 followed by 5 M GuCl was used to regenerate surfaces immobilized with growth factor. Dissociation constants reported below used immobilized binding protein unless noted. Differences between binding constants may be expected between growth factor immobilization and chimera immobilization.
(§2) In this example, erbB4 domain 1 was attached to the N-terminus of the recombinant IGFBP3-Fc or the recombinant IGFBP3-v1v2-Fc.

[2] = biological target: T2, nrgECD (amino acids Ser2-Lys246 of neuregulin beta 1); assay: Biacore binding to nrgECD; conditions: immobilized nrgECD
Description: as §1, §2

VEGF = biological target: T3, VEGF; assay: Stability: VEGF binding remaining after overnight incubation; assay type: physicochemical; conditions: experiment 3-192
Description: (§3) Plates were coated with goat anti-human Fc antibody, blocked and then incubated with chimera as in the Fc ELISA. Biotinylated IGF-1 (GroPep) or VEGF-Biotin (R&D Systems VEGF biotinylated with sulfo-NHS-LC-biotin as per instructions (Pierce) was added for 2 hours followed by streptavidin-HRP (Jackson Immunoresearch) for 30 minutes. Chromogenic development with tetramethyl benzidine was performed as described above.
To test the stability of the present chimeras, some purified chimeras (see, Table 4) were incubated with PBS or a conditioned medium from the MCF-7 cell line overnight at 37° C. and PBS overnight at 4° C. The IGF-1 binding and VEGF binding were measured using the biotinylated IGF-1 and VEGF.

HUVEC cells = assay: HUVEC proliferation assay; assay type: cell-based; conditions: for inhibition of VEGF-induced proliferation of HUVEC cells: FIG. 6, FIG. 13
Description: (§4) MCF-7 cells (a breast cancer cell line) were maintained in MEM (GIBCO) plus insulin and NEAA and 10% FBS (Hyclone).
(§5) For the proliferation assay, cells except for HUVEC were seeded at a density of 1,000 to 6,000 in 96 wells in an assay buffer of DMEM/F12 plus 0.2% BSA and 10 ug/ml transferrin. Chemical inhibitors were added after 16-20 hours after plating; IGF-1 or other growth factors or test chimeras in assay buffer were added at the time of plating or 16-20 hours after plating. 5,000 HUVEC ells were plated in poly-L-lysine coated 96 wells in M199 with 1%/FBS and HEPES. After 3 to 4 days of culture, growth was determined by incubating cells with Alamar blue for 4 to 6 hours and then the fluorescence (RFU) at 544/590 nm was read. For long term proliferation assays, cells were plated in the growth media with 5% or 10% FBS at densities of 500 to 10,000 cells per cm^2 growth area and grown for 7 to 21 days. Inhibitors and effectors were added 1-4 days after plating. Cells were exposed to cisplatin or gemcitabine for two days. Medium was renewed twice weekly. At completion, cells were fixed and then stained with Giemsa.
Growth factor synergism can also be observed in the proliferation of HUVEC cells.

hep3B cells = assay: hep3B proliferation assay; assay type: cell-based, human; conditions: FIG. 22A
Description: as §5
The human hepatoma cell line hep3B could be stimulated by many growth factors including IGF-1, IGF-2, HGF, bFGF, VEGF, and neuregulin.

IGF-1 and VEGF = assay: Competition binding ELISA with biotinylated IGF-1 or biotinylated VEGF; conditions: competitive inhibition data, FIG. 8 and FIG. 9
Description: as §3
ELISA plates were coated with 0.5 μg/ml growth factor (IGF-1, IGF-2, VEGF, etc.) in PBS overnight and blocked as described above. After overnight incubation with chimera, chimera binding was detected with anti-human Fc-HRP and development with tetramethyl benzidine as described above.
Binding specificity was also studied by competition binding assays using biotinylated IGF-1 (IGF-1-bio) or biotinylated VEGF (VEGF-bio) in the growth factor ELISA assay.

[3] = tested on: MCF-7 breast cancer cells; assay: MCF-7 proliferation assay; assay type: cell-based; conditions: FIG. 5
Description: as §4, §5
We next examined the effect of 56662 (BP3/Fc) on the proliferation induced by growth factors that interacted with the IGFBP3. The proliferation of MCF-7 breast cancer cells was induced in serum-free medium by individual growth factors like IGF-1, IGF-2, EGF, TGF-a, Nrgbx, b-FGF, and amphiregulin (FIG. 1).

Molecule | Kd [1] [nM] | Kd [2] [nM] | VEGF binding remaining over control, mcf7 (VEGF; MCF-7 conditioned medium overnight at 37° C.) [%] | VEGF binding remaining over control, 37 con (VEGF; PBS overnight at 37° C.) [%] | inhibition of VEGF-induced proliferation of HUVEC cells (HUVEC cells) | rescue by HGF, bFGF, or IGF in hep3b cells treated with erlotinib (hep3B cells) | simultaneous binding of IGF and VEGF (IGF-1 and VEGF) | inhibition of IGF-1-induced proliferation of MCF-7, compared to 56662 and chimera B [3] | inhibition of HUVEC proliferation stimulated by IGF-1, bFGF, HGF, VEGF, and combinations (HUVEC cells; FIG. 14)
B1 | 6 | 0.004 | – | – | – | – | – | – | –
B2 | – | – | 73 | 101 | potent inhibition | – | – | – | –
B3 | – | – | – | – | potent inhibition | decreased the rescue | could bind simultaneously | a smaller EC50 and a higher maximal inhibition | inhibited

Source: patent US11254722B2, “Recombinant proteins and uses thereof” (ACADEMIA SINICA, priority 2017, dated 2022)
